# Measurements taken from the supplement of paper PMC9170038.
# System: MS2 coat protein
# Assay: apparent KD of MS2 coat protein; higher = weaker reporter binding
# Conditions: Eterna round: R107
# Outline: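 On-chip transcription from Illumina sequencing clusters produced the designed RNA switches. These were titrated with SNAP-549-labelled MS2 coat protein (twofold steps, 0.7 or 1.5 nM to 3 µM) in 100 mM Tris-HCl pH 7.5, 80 mM KCl, 4 mM MgCl2, with or without constant ligand. The apparent KD given is the per-design median of normalised cluster binding-curve fits.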
# [1] = input ligand: theophylline 20 uM
# [2] = input ligand: theophylline 2 mM
# [3] = input ligand: tryptophan 2.4 mM
Sequence,apparent KD of MS2 coat protein (input ligand: arginine 13.2 mM) [µM],apparent KD of MS2 coat protein [1] [µM],apparent KD of MS2 coat protein [2] [µM],apparent KD of MS2 coat protein [3] [µM],apparent KD of MS2 coat protein (input ligand: none) [µM]
AAUAAACAUGAGGAUCACCCAUGUUGUUGACGAGGACCGGUACGGCCGCCACUCGACAUGAGGAUCACCCAUGUUGUCACAUGAG [Same State Tryptophan A],0.0731,0.19,0.256,–,–
AAGCUGCCAAGAAGGUGAUCCAAAUGUGAUACCAGCUAGGAAACUAGCCCUUGGCAGCACAUGAGGAUCACCCAUGUAAUAAUAA [(T)'-(M)'-(T1)-(T2)-(M1)-(M2)_Design1_2/19/17],0.0377,0.191,–,0.0483,–
UAACAUGAGGAUCACCCAUGUAUACUAAGUCGAGGACCGGUACGGCCGCCACUCGAACUUCAAGAAUAGGCGGUAAAUGUAAGUA [JR_ExcTryptoA_Sub020],0.0118,0.0165,0.014,–,–
GAAGGAACCGGAAGGAGCGGGUCCUUAGCCACUACAUGAGGAUCACCCAUGUCCGGGAGGUCCCAGGUAGGUCGCCGGUCUUAAA [Gelece],0.0639,0.324,0.934,0.267,0.277
AGAUGAGUCACGGCCGCCACUCUUAUCAGGAUCACCCAUGGUUGACAUGAGGAUCACCCAUGUAUGAGGACCGGGUGAUGAGCAU [XTryp B #1],0.0137,0.0159,0.015,–,–
UGUAUGGACUGAAGGAGCGGUUGAUAACAUGAGCAUCAGCCAUGUAAUAAGGCGAAAGCCAACCAGGUAGGUCGCAGUCCAUACU,0.00826,0.0125,0.00911,0.0148,0.00968
GGAUAGGACACGGCCGCCACUACCUAGGAUACUAGCAACAUUUGGGUACACGAGGAUCACCCGUGUAGGACCGGGUGUCCUAUCG,0.0326,0.0181,0.0136,0.0192,0.0107
GUCCACAGCCGAAGGAGCGCUAGAAGAUGACAUGAGGAUCACCCAUGUGUGUGGUGUGGCUAGCAGGUAGGUCGCGGAGUGGAUU [Exclusion - Arginine B (Freestyle 15)],0.0397,0.0593,0.039,0.0261,0.0305
CAUGUUGUUGAAGAUACCAGAUUCUGAACGUUCACAUGAGGAUCACCCAUGUAAGUCCGAGUCCCUUGGCAGCUUAUACAGGUGG [Reatlala],0.0439,0.0508,–,0.0477,–
AAUGUAUGGCACAUGAGGAUCACCCAUGUGCGAGGACCGGUACGGCCGCCACUCGGUCCUGGGAUCUUAUUACUAUACAUUAAUG [XTryp A #17],0.0118,0.0157,0.0125,–,–
UUGACAUGAGGAUCACCCAUGUUAGCUGAAGGAGCGAGGUAGUACUCAGGUAGGUCGCAGAGAGCAGAGUUAGUUGUUCUCAUGU [X-ArgiA-ms2@4],0.0215,0.0285,0.0233,0.0186,0.0191
AGAAUGUAAUAUGGCAAAGUUAUAACCGAAGGAGCGCCGAAUAAGGCAGGUAGGUCGCGGAAACAUGAGGAUCACCCAUGUCCAU [Arginine A Same State; Euphoria Solution 3],0.0181,0.019,0.0144,0.018,0.0173
UUCAGACAUGAGGAUCACCCAUGUACUGAAGGAGCGGAUAAAUAUCCAGGUAGGUCGCAGUAUUGAGGGUCUACUUCCAGUCUUA [Rexeesqu],0.0117,0.0129,0.0104,0.0101,0.00936
GUACAUGAGGAUCACCCAUGUAUAGUUGAAGGAGCGACCGGUGGGUCAGGUAGGUCGCAGCACAUGGCGUCAACCCGUGUAUGCC [#1 Exclusion - Arginine A Attempt #26 (Inspired by Pi)],0.0181,0.0267,0.0221,0.0172,0.0176
AUAACAUGAGGAUCACCCAUGUAGAGUGAUACCAGACUACGUAAUGUCCCUUGGCAGCACAAGUAAAGUUACGAAUAAUGAUAGA [JR_SSTheophyA_Sub002],0.113,0.146,–,0.137,–
CUACAUUUGUAGAAACCGGUCAACAUUAUUCGAGGACCGGUACGGCCGCCACUCGUAUAUUUUAAUACAUGAGGAUCACCCAUGU [Tryptophan A 6],0.0123,0.0142,0.0136,–,–
ACUAGGCUCGGAAACGAGCCUAGGACAGAAGGAGCGUGGAUUAACACAGGUAGGUCGCUGACAUGAGGAUCACCCAUGUAUUUAU [SSAA #5],0.0199,0.0312,0.0256,0.0219,0.0273
GGUGUAUCCAUCGAUACCAGCCACCACCGAUAGACCACAUGAGGAUCACCCAUGUUGGGUGGCCCUUGGCAGCGGUGGCUGUGCC [Same State - Theophylline B Attempt #3 (HarryS)],0.0799,0.592,–,0.353,–
UUGUUGUUUGGAAGGAGCGUGUAUGAUUUAGAACAUGAGGAUCACCCAUGUUGGAGGAUAGCACAGGUAGGUCGCCGGGUGGUGG [11.X],0.0162,0.0236,0.0214,0.015,0.0134
AGCCCUGUGCUAGAUACCAGCUACAUGAGGAUCACCCAUGUGCGUCAAGACUGACUGUGUAGCCCUUGGCAGCUACUCGCAUGUA [Exclusion - Theophylline B (Freestyle 4)],0.0119,0.019,–,0.0125,–
CCUAUGCAGUCGGCCGCCACUGAGUCCUCAAUAAUAAAUUAUUAUACAUGAGGAUCACCCAUGUACAGGACCGGGACUGUAUAGG [Ex Tryptophan B 14],0.089,0.244,0.237,0.214,0.122
GGGCCUAUAAGCAGGCCCACAGCGGGUGAUACCAGCAAUAAAACUUGCCCUUGGCAGCACACAGCUACAUGAGGAUCACCCAUGU [Beator],0.0411,0.0729,0.0706,0.0624,0.0451
AUUGUGAAGUCGGCCGCCACUGCAUAGUUUAACCACAUGUAACAUGAGGAUCACCCAUGUAAUGACAGGACCGGGACAAUAGUAA [JR_SSTryptoB_Sub023],0.0222,0.0419,0.0299,–,–
CACGAAAGAUCGGCCGCCACUAGCCUGUGUGUACUAGCACAUGAGGAUCACCCAUGUUCUUGCGUUAGGACCGGGAUUGAGCGUG [#05 Exclusion Tryptophan B],0.0171,0.0279,0.0339,0.0255,0.0268
CCGAACAUGAGGAUCACCCAUGUUAGGGAUACCAGCCCAGACAUGGGCCCUUGGCAGCUCUAUAGCUGACGAAAGUCAGCAUCGG [#14 SameState-TheophyllineA],0.0349,0.0657,–,0.0444,–
GAGUCCGCGGCGGCCGCCACUCGCGGCGCCACAUGGCGCCGGGACAUGAGGAUCACCCAUGUCCCGAGGACCGGGCCGAUCCUCA [Same State Typrtophan B GF4],0.0166,0.0356,0.0339,0.0145,0.0181
UCGUGGUCCGCAAGGACCGGGAGUUGCGAUACCAGCACGGUAACGUGCCCUUGGCAGCGCACAUGAGGAUCACCCAUGUGGUGUU [#1 Exclusion - Theophylline A Attempt #14 (HarryS)],0.0409,0.305,–,0.174,–
AGCCACUCGAGUGAUCCUCACGAGUGGCUACGAGGACCGGUACGGCCGCCACUCGAAUCAACAUGAGGAUCACCCAUGUAAUAAU [Brourdmod02],0.0205,0.159,0.802,0.0548,0.202
GACGCAUGAGUUGUAACAGCUCAUGGGUCGCGAGGACCGGUACGGCCGCCACUCGGCUGUACAUGAGGAUCACCCAUGUCAGGGU [#1 Same State - Tryptophan A Attempt #29 (HarryS)],0.0247,1.32,1.31,0.451,0.346
